# Measured values reported in patent US20090291081A1 (AbbVie / Abbott, published 2009).
# Residue numbers refer to the chain shown, from its start. Where “and” joins values, the source holds several entries; their conditions need not be identical. Identical values can stand only once. Like-named read-outs stand apart in the source and are kept apart here.
# T1: human IL-1α (human, UniProt P01583 113-271)
# T1 construct: also called hIL-1α; rhIL-1 alpha
# T1 sequence (looked up): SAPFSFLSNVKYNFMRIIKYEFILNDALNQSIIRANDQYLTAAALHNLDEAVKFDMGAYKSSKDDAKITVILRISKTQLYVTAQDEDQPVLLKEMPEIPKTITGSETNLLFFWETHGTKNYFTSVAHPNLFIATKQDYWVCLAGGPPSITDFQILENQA
# B1: ABT1-95-3 (other)
# VL: DIQMTQSPSSLSASVGDRVTITCRASQPIHGNLRWYQQKPGKAPKLLIYSSSYLQSGVPSRFSGSGSGTDFTLTISSLQPEDFATYHCQQGYRWPVTFGQGTKVEIKR
# notes: dAb, Vκ, to IL-1α
# B2: ABT2-108-620x/ABT1-95-A3 hu IgG1/K mut (234; 235) (bispecific antibody, V domains shown)
# VH: EVQLLESGGGLVQPGGSLRLSCAASGFTFAEESWMWVRQAPGKGLEWVSRIGQDGKNTYYREDVKGRFTISRDNSKNTLYLQMNSLRAEDTAVYYCAKYTGRIMGHHLFDYWGQGTLVTVSS
# VL: B1 VL with Q27K, I29G, H30V, G31R, L33M, S51V, Q55E, S56P, Q89L, V96P
# notes: hu IgG1/K mut (234)
# B3: ABT1-95-8 (other)
# VL: B1 VL with H30Q, Q55E, S56R
# notes: dAb, Vκ, to IL-1α
# How the values were obtained:
# human IL-1α [1] = biological target: T1, human IL-1α; experiment: BIAcore, purified dAb
# human IL-1α [2] = biological target: T1, human IL-1α; experiment: cell-based or functional assay
# human IL-1α [3] = biological target: T1, human IL-1α; experiment: method not given
# human IL-1α [4] = biological target: T1, human IL-1α; experiment: BIAcore, IL-1α coated chip, dAb flowed over
# human IL-1α [5] = biological target: T1, human IL-1α; experiment: cell-based or functional assay; remark: listed apart in the source
# human IL-1β [6] = biological target: T2, human IL-1β (human, UniProt P01584 117-269); experiment: cell-based or functional assay
# human IL-1α [7] = biological target: T1, human IL-1α; experiment: cell-based or functional assay; remark: listed apart in the source
# human IL-1β [8] = biological target: T2, human IL-1β; experiment: cell-based or functional assay; remark: listed apart in the source
# human IL-1α [9] = biological target: T1, human IL-1α; experiment: Biacore, IgG captured by goat anti-human IgG Fc
# human IL-1β [10] = biological target: T2, human IL-1β; experiment: Biacore, IgG captured by goat anti-human IgG Fc
# human IL-1β [11] = biological target: T2, human IL-1β; experiment: Biacore, IgG captured by goat anti-human IgG Fc; rhIL-1 beta followed by rhIL-1 alpha
# Experimental: (§1) The antibody (1-5 ug/ml) was first captured on a goat anti human IgG FC surface.
# human IL-1α [12] = biological target: T1, human IL-1α; experiment: Biacore, IgG captured by goat anti-human IgG Fc; rhIL-1 alpha 100 nM then rhIL-1 beta 200 nM
# Experimental: as §1
# human IL-1β [13] = biological target: T2, human IL-1β; experiment: as above
# Experimental: as §1
# human IL-1α [14] = biological target: T1, human IL-1α; experiment: IL-1 Receptor Binding Assay
binder,measurement,setting,value
B1,Kd,human IL-1α [1],5.4 nM
same,MRC5 ND50,human IL-1α [2],50 nM
same,Kd,human IL-1α [3],5 to 10 nM
same,Kd,human IL-1α [4],7 to 12 nM
B2,IC50 (MRC-5 neutralization assay),human IL-1α [5],< 0.001 nM
same,MRC-5 IL-1a inhibition assay EC50,human IL-1α [5],0.00446 nM
same,IC50 (MRC-5 neutralization assay),human IL-1β [6],0.00558 nM
same,IL-1α IC50,human IL-1α [7],0.002 nM
same,IL-1β IC50,human IL-1β [8],0.0073 nM
same,Kd,human IL-1α [9],0.0887 nM and 0.0835 nM
same,koff,human IL-1α [9],4.25e-05 s⁻¹ and 4.11e-05 s⁻¹
same,kon,human IL-1α [9],479000 M⁻¹ s⁻¹ and 492000 M⁻¹ s⁻¹
same,Kd,human IL-1β [10],0.446 nM and 0.361 nM
same,koff,human IL-1β [10],0.000138 s⁻¹ and 0.000102 s⁻¹
same,kon,human IL-1β [10],315000 M⁻¹ s⁻¹ and 283000 M⁻¹ s⁻¹
same,Kd,human IL-1β [10]; mean,0.404 nM
same,koff,human IL-1β [10]; mean,0.00012 s⁻¹
same,kon,human IL-1β [10]; mean,299000 M⁻¹ s⁻¹
same,stoichiometry,human IL-1β [11],0.98
same,stoichiometry,human IL-1α [12],2
same,stoichiometry,human IL-1β [13],0.9
B3,MRC5 ND50,human IL-1α [2],0.9 nM
same,IC50,human IL-1α [14],1 nM
same,Kd,human IL-1α [3],0.9 nM
